Test results from paper PMC11098746 (2024).

B1: ADP268 (protein)
chain: WEYGDLHLFGPNQRPAPCYDPCEAVLVESIPEGLDFPNASTGNPSTSQAWLGLLAGAHSSLDIASFYWTLTNNDTHTQEPSAQQGEEVLRQLQTLAPKGVNVRIAVSKPSGPQPQADLQALLQSGAQVRMVDMQKLTHGVLHTKFWVVDQTHFYLGSANMDWRSLTQVKELGVVMYNCSCLARDLTKIFEAYWFLGQAGSSIPSTWPRFYDTRYNQETPMEICLNGTPALAYLASAPPPLCPSGRTPDLKALLNVVDNARSFIYVAVMNYLPTLEFSHPHRFWPAIDDGLRRATYERGVKVRLLISCWGHSEPSMRAFLLSLAALRDNHTHSDIQVKLFVVPADEAQARIPYARVNHNKYMVTERATYIGTSNWSGNYFTETAGTSLLVTQNGRGGLRSQLEAIFLRDWDSPYSHDLDTSADSVGNACRLL
modifications: bait human Fc-tagged dimer
B2: ADP141 (protein)
chain: MGRLASRPLLLALLSLALCRGRVVRVPTATLVRVVGTELVIPCNVSDYDGPSEQNFDWSFSSLGSSFVELASTWEVGFPAQLYQERLQRGEILLRRTANDAVELHIKNVQPSDQGHYKCSTPSTDATVQGNYEDTVQVKVLADSLHVGPSARPPPSLSLREGEPFELRCTAASASPLHTHLALLWEVHRGPARRSVLALTHEGRFHPGLGYEQRYHSGDVRLDTVGSDAYRLSVSRALSADQGSYRCIVSEWIAEQGNWQEIQEKAVEVATVVIQPSVLRAAVPKNVSVAEGKELDLTCNITTDRADDVRPEVTWSFSRMPDSTLPGSRVLARLDRDSLVHSSPHVALSHVDARSYHLLVRDVSKENSGYYYCHVSLWAPGHNRSWHKVAEAVSSPAGVGVTWLEPDYQVYLNASKVPGFADDPTELACRVVDTKSGEANVRFTVSWYYRMNRRSDNVVTSELLAVMDGDWTLKYGERSKQRAQDGDFIFSKEHTDTFNFRIQRTTEEDRGNYYCVVSAWTKQRNNSWVKSKDVFSKPVNIFWALEDSVLVVKARQPKPFFAAGNTFEMTCKVSSKNIKSPRYSVLIMAEKPVGDLSSPNETKYIISLDQDSVVKLENWTDASRVDGVVLEKVQEDEFRYRMYQTQVSDAGLYRCMVTAWSPVRGSLWREAATSLSNPIEIDFQTSGPIFNASVHSDTPSVIRGDLIKLFCIITVEGAALDPDDMAFDVSWFAVHSFGLDKAPVLLSSLDRKGIVTTSRRDWKSDLSLERVSVLEFLLQVHGSEDQDFGNYYCSVTPWVKSPTGSWQKEAEIHSKPVFITVKMDVLNAFKYP
modifications: bait human Fc-tagged dimer
B3: ADP342 (protein)
chain: MATQLPAYVAILLFYVSRASCQDTFTAAVYEHAAILPNATLTPVSREEALALMNRNLDILEGAITSAADQGAHIIVTPEDAIYGWNFNRDSLYPYLEDIPDPEVNWIPCNNRNRFGQTPVQERLSCLAKNNSIYVVANIGDKKPCDTSDPQCPPDGRYQYNTDVVFDSQGKLVARYHKQNLFMGENQFNVPKEPEIVTFNTTFGSFGIFTCFDILFHDPAVTLVKDFHVDTIVFPTAWMNVLPHLSAVEFHSAWAMGMRVNFLASNIHYPSKKMTGSGIYAPNSSRAFHYDMKTEEGKLLLSQLDSHPSHSAVVNWTSYASSIEALSSGNKEFKGTVFFDEFTFVKLTGVAGNYTVCQKDLCCHLSYKMSENIPNEVYALGAFDGLHTVEGRYYLQICTLLKCKTTNLNTCGDSAETASTRFEMFSLSGTFGTQYVFPEVLLSENQLAPGEFQVSTDGRLFSLKPTSGPVLTVTLFGRLYEKDWASNASSGLT
modifications: bait human Fc-tagged dimer
B4: ADP276 (protein)
chain: DRGHLDYPRNPRREGSFPQGQLSMLQEKIDHLERLLAENNEIISNIRDSVINLSESVEDGPKSSQSNFSQGAGSHLLPSQLSLSVDTADCLFASQSGSHNSDVQMLDVYSLISFDNPDGGVWKQGFDITYESNEWDTEPLQVFVVPHSHNDPGWLKTFNDYFRDKTQYIFNNMVLKLKEDSRRKFIWSEISYLSKWWDIIDIQKKDAVKSLIENGQLEIVTGGWVMPDEATPHYFALIDQLIEGHQWLENNIGVKPRSGWAIDPFGHSPTMAYLLNRAGLSHMLIQRVHYAVKKHFALHKTLEFFWRQNWDLGSVTDILCHMMPFYSYDIPHTCGPDPKICCQFDFKRLPGGRFGCPWGVPPETIHPGNVQSRARMLLDQYRKKSKLFRTKVLLAPLGDDFRYCEYTEWDLQFKNYQQLFDYMNSQSKFKVKIQFGTLSDFFDALDKADETQRDKGQSMFPVLSGDFFTYADRDDHYWSGYFTSRPFYKRMDRIMESHLRAAEILYYFALRQAHKYKINKFLSSSLYTALTEARRNLGLFQHHDAITGTAKDWVVVDYGTRLFHSLMVLEKIIGNSAFLLILKDKLTYDSYSPDTFLEMDLKQKSQDSLPQKNIIRLSAEPRYLVVYNPLEQDRISLVSVYVSSPTVQVFSASGKPVEVQVSAVWDTANTISETAYEISFRAHIPPLGLKVYKILESASSNSHLADYVLYKNKVEDSGIFTIKNMINTEEGITLENSFVLLRFDQTGLMKQMMTKEDGKHHEVNVQFSWYGTTIKRDKSGAYLFLPDGNAKPYVYTTPPFVRVTHGRIYSEVTCFFDHVTHRVRLYHIQGIEGQSVEVSNIVDIRKVYNREIAMKISSDIKSQNRFYTDLNGYQIQPRMTLSKLPLQANVYPMTTMAYIQDAKHRLTLLSAQSLGVSSLNSGQIEVIMDRRLMQDDNRGLEQGIQDNKITANLFRILLEKRSAVNTEEEKKSVSYPSLLSHITSSLMNHPVIPMANKFSSPTLELQGEFSPLQSSLPCDIHLVNLRTIQSKVGNGHSNEAALILHRKGFDCRFSSKGTGLFCSTTQGKILVQKLLNKFIVESLTPSSLSLMHSPPGTQNISEINLSPMEISTFRIQLR
modifications: bait human Fc-tagged dimer
B5: ADP361 (protein)
chain: MAPPQVLAFGLLLAAATATFAAAQEECVCENYKLAVNCFVNNNRQCQCTSVGAQNTVICSKLAAKCLVMKAEMNGSKLGRRAKPEGALQNNDGLYDPDCDESGLFKAKQCNGTSMCWCVNTAGVRRTDKDTEITCSERVRTYWIIIELKHKAREKPYDSKSLRTALQKEITTRYQLDPKFITSILYENNVITIDLVQNSSQKTQNDVDIADVAYYFEKDVKGESLFHSKKMDLTVNGEQLDLDPGQTLIYYVDEKAPEFSMQGLKAG
modifications: bait human Fc-tagged dimer
B6: ADP103 (protein)
chain: MAAALFVLLGFALLGTHGASGAAGFVQAPLSQQRWVGGSVELHCEAVGSPVPEIQWWFEGQGPNDTCSQLWDGARLDRVHIHATYHQHAASTISIDTLVEEDTGTYECRASNDPDRNHLTRAPRVKWVRAQAVVLVLEPGTVFTTVEDLGSKILLTCSLNDSATEVTGHRWLKGGVVLKEDALPGQKTEFKVDSDDQWGEYSCVFLPEPMGTANIQLHGPPRVKAVKSSEHINEGETAMLVCKSESVPPVTDWAWYKITDSEDKALMNGSESRFFVSSSQGRSELHIENLNMEADPGQYRCNGTSSKGSDQAIITLRVRSHL
modifications: bait human Fc-tagged dimer
B7: ADP267 (protein)
chain: CKYKKSSGQLWSWMVCLAGLCAVCLLILSPFWGLILFSVSCFLMYTYLSGQELLPVDQKAVLVTGGDCGLGHALCKYLDELGFTVFAGVLNENGPGAEELRRTCSPRLSVLQMDITKPVQIKDAYSKVAAMLQDRGLWAVINNAGVLGFPTDGELLLMTDYKQCMAVNFFGTVEVTKTFLPLLRKSKGRLVNVSSMGGGAPMERLASYGSSKAAVTMFSSVMRLELSKWGIKVASIQPGGFLTNIAGTSDKWEKLEKDILDHLPAEVQEDYGQDYILAQRNFLLLINSLASKDFSPVLRDIQHAILAKSPFAYYTPGKGAYLWICLAHYLPIGIYDYFAKRHFGQDKPMPRALRMPNYKKKAT
modifications: bait human Fc-tagged dimer
B8: ADP392 (protein)
chain: GLTRSCDSSGDGGPGTAPAPSHLPSSTASPSGPPAQDQDICPASEDESGQWKNFRLPDFVNPVHYDLHVKPLLEEDTYTGTVSISINLSAPTRYLWLHLRETRITRLPELKRPSGDQVQVRRCFEYKKQEYVVVEAEEELTPSSGDGLYLLTMEFAGWLNGSLVGFYRTTYTENGQVKSIVATDHEPTDARKSFPCFDEPNKKATYTISITHPKEYGALSNMPVAKEESVDDKWTRTTFEKSVPMSTYLVCFAVHQFDSVKRISNSGKPLTIYVQPEQKHTAEYAANITKSVFDYFEEYFAMNYSLPKLDKIAIPDFGTGAMENWGLITYRETNLLYDPKESASSNQQRVATVVAHELVHQWFGNIVTMDWWEDLWLNEGFASFFEFLGVNHAETDWQMRDQMLLEDVLPVQEDDSLMSSHPIIVTVTTPDEITSVFDGISYSKGSSILRMLEDWIKPENFQKGCQMYLEKYQFKNAKTSDFWAALEEASRLPVKEVMDTWTRQMGYPVLNVNGVKNITQKRFLLDPRANPSQPPSDLGYTWNIPVKWTEDNITSSVLFNRSEKEGITLNSSNPSGNAFLKINPDHIGFYRVNYEVATWDSIATALSLNHKTFSSADRASLIDDAFALARAQLLDYKVALNLTKYLKREENFLPWQRVISAVTYIISMFEDDKELYPMIEEYFQGQVKPIADSLGWNDAGDHVTKLLRSSVLGFACKMGDREALNNASSLFEQWLNGTVSLPVNLRLLVYRYGMQNSGNEISWNYTLEQYQKTSLAQEKEKLLYGLASVKNVTLLSRYLDLLKDTNLIKTQDVFTVIRYISYNSYGKNMAWNWIQLNWDYLVNRYTLNNRNLGRIVTIAEPFNTELQLWQMESFFAKYPQAGAGEKPREQVLETVKNNIEWLKQHRNTIREWFFNLLESG
modifications: bait human Fc-tagged dimer
B9: ADP377 (protein)
chain: FSECNKCDEKKERGLPAGDVLEPVQKPHEGPGEMGKPVVIPKEDQEKMKEMFKINQFNLMASEMIALNRSLPDVRLEGCKTKVYPDNLPTTSVVIVFHNEAWSTLLRTVHSVINRSPRHMIEEIVLVDDASERDFLKRPLESYVKKLKVPVHVIRMEQRSGLIRARLKGAAVSKGQVITFLDAHCECTVGWLEPLLARIKHDRRTVVCPIIDVISDDTFEYMAGSDMTYGGFNWKLNFRWYPVPQREMDRRKGDRTLPVRTPTMAGGLFSIDRDYFQEIGTYDAGMDIWGGENLEISFRIWQCGGTLEIVTCSHVGHVFRKATPYTFPGGTGQIINKNNRRLAEVWMDEFKNFFYIISPGVTKVDYGDISSRVGLRHKLQCKPFSWYLENIYPDSQIPRHYFSLGEIRNVETNQCLDNMARKENEKVGIFNCHGMGGNQVFSYTANKEIRTDDLCLDVSKLNGPVTMLKCHHLKGNQLWEYDPVKLTLQHVNSNQCLDKATEEDSQVPSIRDCNGSRSQQWLLRNVTLPEIF
modifications: bait human Fc-tagged dimer
B10: ADP115 (protein)
chain: MARPGQRWLGKWLVAMVVWALCRLATPLAKNLEPVSWSSLNPKFLSGKGLVIYPKIGDKLDIICPRAEAGRPYEYYKLYLVRPEQAAACSTVLDPNVLVTCNRPEQEIRFTIKFQEFSPNYMGLEFKKHHDYYITSTSNGSLEGLENREGGVCRTRTMKIIMKVGQDPNAVTPEQLTTSRPSKEADNTVKMATQAPGSRGSLGDSDGKHETVNQEEKSGPGASGGSSGDPDGFFNSKVAL
modifications: bait human Fc-tagged dimer

Biological target: Circumsporozoite protein (CSP) (Plasmodium falciparum (isolate 3D7), UniProt Q7K740)
Assay: AVEXIS screen signal:noise (double-corrected)

Circumsporozoite protein (CSP), sequence (Q7K740 19-374): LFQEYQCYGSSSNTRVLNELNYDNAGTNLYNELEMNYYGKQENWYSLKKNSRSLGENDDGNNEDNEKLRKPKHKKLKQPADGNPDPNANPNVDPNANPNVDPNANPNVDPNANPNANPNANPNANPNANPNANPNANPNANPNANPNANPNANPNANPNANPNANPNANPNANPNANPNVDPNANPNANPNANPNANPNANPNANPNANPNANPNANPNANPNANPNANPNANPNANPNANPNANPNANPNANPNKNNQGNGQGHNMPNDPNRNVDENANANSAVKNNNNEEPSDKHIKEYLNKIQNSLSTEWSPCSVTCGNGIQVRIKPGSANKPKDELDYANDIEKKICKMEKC

Point of comparison: B6, binding score 0.981. Against it:
- B1 — lower, 0.585
- B2 — higher, 2.49
- B3 — higher, 1.71
- B4 — lower, 0.79
- B5 — higher, 6.45
- B7 — lower, 0.806
- B8 — lower, 0.793
- B9 — lower, 0.747
- B10 — higher, 1.09
